# Experimental data published in patent US20030171557.
# Tests used:
# [1] = system: GST-IkBα protein [GST: P08515]
# Chain of GST-IkBα protein [GST: P08515] (P08515 whole entry, looked up): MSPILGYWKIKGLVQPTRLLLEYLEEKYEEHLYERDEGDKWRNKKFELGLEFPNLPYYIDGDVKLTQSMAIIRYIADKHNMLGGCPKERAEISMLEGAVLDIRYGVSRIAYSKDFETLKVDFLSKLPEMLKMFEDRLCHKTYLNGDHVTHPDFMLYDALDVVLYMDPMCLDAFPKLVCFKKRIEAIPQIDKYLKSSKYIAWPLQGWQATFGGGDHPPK
substance,measurement,setting,value
GST fusion protein with mutant VRK1 protein (Lys 71 replaced by Trp),"kinase assay, phosphorylation of substrate ([γ-32P]-ATP, SDS-PAGE, 10 mM Mg)",[1],no phosphorylation was observed in reactions with mutant VRK1 carrying mutation in the predicted ATP binding site
same,"kinase assay, phosphorylation of substrate ([γ-32P]-ATP, SDS-PAGE, 10 mM Mg)",casein (Sigma),no phosphorylation was observed in reactions with mutant VRK1 carrying mutation in the predicted ATP binding site
